Source: patent US20230250158A1

Molecular target: SARS-CoV-2 Spike protein on VSV pseudotyped virus particles (Wuhan-1 isolate Spike sequence) (SARS-CoV-2) (UniProt P0DTC2)
Experiment: cell-based or functional assay

REGN10933 (antibody)
IC50 in pseudovirus assays: 0.67 µg/mL

REGN10987 (antibody)
IC50 in pseudovirus assays: 0.45 µg/mL
